What is called EC50 is the concentration that produces a half-maximal response. A high value points to a less potent agent. One may read the Kd as the free concentration of one partner at which half of the binding sites on the other are occupied at equilibrium, for simple one-to-one binding. Usually koff stands for the rate constant with which the complex falls apart. The term kon denotes the second-order rate constant of association.

B1: 003BB172-E01-5 (VHH)
VHH: EVQLVESGGGLVQPGGSLRLSCAASGFTFSNYGMHWVRQAPGKRLEWVAVISNDGNTKTYADSVKGRFTISRDNSKNTLYLQMNSLRTEDTAVYYCAQDETTTVTASYYFDYWGQGTLVTVSS
notes: Human VH single domain antibody, monovalent
B2: 003BB172-E01-6 (VHH)
VHH: B1 VHH with R44G, T78M
notes: Human VH single domain antibody, monovalent; also called CD137B
B3: 003BB172-E01-10 (VHH)
VHH: B1 VHH with G16R, R44G
notes: as for B1
B4: 003BB172-E01-8 (VHH)
VHH: B1 VHH with L11V, R44G
notes: as for B1
B5: 003BB172-E01-12 (VHH)
VHH: B1 VHH with G16R, R44G, T88A
notes: as for B1
B6: 003BB172-E01-13 (VHH)
VHH: B1 VHH with L11V, R44G, T88A
notes: Human VH single domain antibody, monovalent; also called CD137D; 172E1-13
B7: 003BB172-E01-7 (VHH)
VHH: B1 VHH with R44G
notes: Human VH single domain antibody, monovalent; also called CD137C
B8: 003BB172-E01-11 (VHH)
VHH: B1 VHH with L11V, G16R, R44G
notes: as for B1
B9: 003BB172-E01-9 (VHH)
VHH: B1 VHH with R44G, T88A
notes: as for B1
B10: TPP-1409 CD137A-1GS-HSA2-1GS-PD138G7(G109D) (bispecific antibody)
chain: EVQLVESGGGLVQPGGSLRLSCAASGFTLSNYWMNWVRQAPGKGLEWVANINQDGSERYYVDSVKGRFTISRDNAKNSLYLQMNSLRAEDTAVYYCARGGEGYGVDHYGLDVSGQGTTVTVSSGGGGSEVQLVESGGGLVKPGGSLRLSCAASGFTFSNYNMNWVRQAPGKGLEWVSSISSAGTHIYYADSVKGRFTISRDNAKNSLYLQMNSLRAEDTAVYYCARDPHSTGWYKDFDYWGQGTLVTVSSGGGGSEVQLVESGGGVVRPGGSLRLSCAASGFTFDDYAMSWVRQAPGKGLEWVSGITWNGGSTGYADSVKDRFTISRDNAKNSLYLQMNSLRAEDTALYYCVRDKYSYAWSYDDFDIWGQGTMVTVSS
B11: TPP-1410 PD138G7(G109D)-1GS-CD137A-6GS-HSA2 (bispecific antibody)
chain: EVQLVESGGGVVRPGGSLRLSCAASGFTFDDYAMSWVRQAPGKGLEWVSGITWNGGSTGYADSVKDRFTISRDNAKNSLYLQMNSLRAEDTALYYCVRDKYSYAWSYDDFDIWGQGTMVTVSSGGGGSEVQLVESGGGLVQPGGSLRLSCAASGFTLSNYWMNWVRQAPGKGLEWVANINQDGSERYYVDSVKGRFTISRDNAKNSLYLQMNSLRAEDTAVYYCARGGEGYGVDHYGLDVSGQGTTVTVSSGGGGSGGGGSGGGGSGGGGSGGGGSGGGGSEVQLVESGGGLVKPGGSLRLSCAASGFTFSNYNMNWVRQAPGKGLEWVSSISSAGTHIYYADSVKGRFTISRDNAKNSLYLQMNSLRAEDTAVYYCARDPHSTGWYKDFDYWGQGTLVTVSS
B12: TPP-1408 PD138G7(G109D)-1GS-HSA2-1GS-CD137D (bispecific antibody)
chain: EVQLVESGGGVVRPGGSLRLSCAASGFTFDDYAMSWVRQAPGKGLEWVSGITWNGGSTGYADSVKDRFTISRDNAKNSLYLQMNSLRAEDTALYYCVRDKYSYAWSYDDFDIWGQGTMVTVSSGGGGSEVQLVESGGGLVKPGGSLRLSCAASGFTFSNYNMNWVRQAPGKGLEWVSSISSAGTHIYYADSVKGRFTISRDNAKNSLYLQMNSLRAEDTAVYYCARDPHSTGWYKDFDYWGQGTLVTVSSGGGGSEVQLVESGGGVVQPGGSLRLSCAASGFTFSNYGMHWVRQAPGKGLEWVAVISNDGNTKTYADSVKGRFTISRDNSKNTLYLQMNSLRAEDTAVYYCAQDETTTVTASYYFDYWGQGTLVTVSS
B13: TPP-1411 PD138G7(G109D)-1GS-CD137A-1GS-HSA2 (bispecific antibody)
chain: EVQLVESGGGVVRPGGSLRLSCAASGFTFDDYAMSWVRQAPGKGLEWVSGITWNGGSTGYADSVKDRFTISRDNAKNSLYLQMNSLRAEDTALYYCVRDKYSYAWSYDDFDIWGQGTMVTVSSGGGGSEVQLVESGGGLVQPGGSLRLSCAASGFTLSNYWMNWVRQAPGKGLEWVANINQDGSERYYVDSVKGRFTISRDNAKNSLYLQMNSLRAEDTAVYYCARGGEGYGVDHYGLDVSGQGTTVTVSSGGGGSEVQLVESGGGLVKPGGSLRLSCAASGFTFSNYNMNWVRQAPGKGLEWVSSISSAGTHIYYADSVKGRFTISRDNAKNSLYLQMNSLRAEDTAVYYCARDPHSTGWYKDFDYWGQGTLVTVSS
B14: TPP-951: PDA2-6GS-172E1-13-6GS-HSA3-His (bispecific antibody)
chain: EVQLVESGGGVVRPGGSLRLSCAASGFTFDDYAMSWVRQAPGKGLEWVSGITWNAGSTGYADSVKGRFTISRDNAKNSLYLQMNSLRAEDTALYYCVRDKYSYAWSYDDFDIWGQGTMVTVSSGGGGSGGGGSGGGGSGGGGSGGGGSGGGGSEVQLVESGGGVVQPGGSLRLSCAASGFTFSNYGMHWVRQAPGKGLEWVAVISNDGNTKTYADSVKGRFTISRDNSKNTLYLQMNSLRAEDTAVYYCAQDETTTVTASYYFDYWGQGTLVTVSSGGGGSGGGGSGGGGSGGGGSGGGGSGGGGSEVQLLESGGGLVKPGGSLRLSCAASGFTVSSYTMNWVRQAPGKGLEWVSSISSSGRYIYYADSVKGRFTISRDNAKNSLYLQMNSLRAEDTAVYYCARDPRMVGNPHEFDIWGQGTMVTVSSAAAHHHHHH
B15: TPP-950: PDA2-6GS-172E1-13-6GS-HSA2-His (bispecific antibody)
chain: EVQLVESGGGVVRPGGSLRLSCAASGFTFDDYAMSWVRQAPGKGLEWVSGITWNAGSTGYADSVKGRFTISRDNAKNSLYLQMNSLRAEDTALYYCVRDKYSYAWSYDDFDIWGQGTMVTVSSGGGGSGGGGSGGGGSGGGGSGGGGSGGGGSEVQLVESGGGVVQPGGSLRLSCAASGFTFSNYGMHWVRQAPGKGLEWVAVISNDGNTKTYADSVKGRFTISRDNSKNTLYLQMNSLRAEDTAVYYCAQDETTTVTASYYFDYWGQGTLVTVSSGGGGSGGGGSGGGGSGGGGSGGGGSGGGGSEVQLVESGGGLVKPGGSLRLSCAASGFTFSNYNMNWVRQAPGKGLEWVSSISSAGTHIYYADSVKGRFTISRDNAKNSLYLQMNSLRAEDTAVYYCARDPHSTGWYKDFDYWGQGTLVTVSSAAAHHHHHH

Where a chain is given by its changes, count along the chain named. Numbers in names are those of the source.

The target in one experiment is T1, human CD137 expressed on CHO cells (human, UniProt Q07011 18-255).
T1 construct: also called CHO huCD137; CHO human CD137 cells
The experiment in a line: FMAT/Mirrorball on CHO huCD137 cells. As to the method:
Binding of His-tagged molecules to CHO human CD137, CHO parent and CHO human PD1 cells was assessed using Fluorescence Microvolume Assay Technology (FMAT). All reagents were prepared in FMAT assay buffer (pH 7.4) containing PBS, 0.1% Bovine Serum Albumin, 0.05% Sodium Azide. […] Fluorescence emission was then measured on the TTP Mirrorball plate reader in the FL2 (502 nm-537 nm) and FL5 (677-800 nm) channels following excitation at 488 nm and 640 nm. Data was gated on FL5 perimeter and peak intensity and the FL2 median mean fluorescence intensity of the gated data used for determination of VH binding. Monovalent CD137 specific Humabody® VH, and trispecific molecules with a CD137 binding arm bound to CHO CD137 expressing cells. Trispecific Humabody® VH, with a PD1 binding arm bound to PD1 expressing cells.
The molecule B1 showed a 50% effective concentration (EC50) of 1.29 nM.
For B2, the EC50 turned out to be 1.08 nM.
The same measure, in the same setting: then B3, with 1.22 nM; and B4, with 1.08 nM.
Still for that read-out and setting: then B5, with 1.21 nM.
Molecule B6 had a half-maximal effective concentration (EC50) of 0.954 nM.
Still for that read-out and setting: then B7, with 1.28 nM; and B8, with 1.21 nM.
The same measure, in the same setting: then B9, with 0.849 nM.

In a further experiment the target is T2, Rhesus CD137-Fc tagged protein (rhesus, UniProt H9Z8K9 24-186).
T2 construct: extracellular domain; The Octet paragraph gives no catalogue number; also called rhCD137-Fc
The experiment in a line: BLI (Octet RED384), CD137-Fc on Protein G sensor, 1:1 model. As to the method: Binding kinetics of purified monovalent VH molecules were measured on a ForteBio Octet RED 384 instrument. Human and Rhesus CD137-Fc tagged protein was diluted to 5 μg/ml in kinetics buffer (0.05% Tween, 1×PBS) and coupled to Protein G biosensors (ForteBio cat no. 18-5082) via the Fc tag. VH were serially diluted (typically 1:2 dilution series starting with 200 nM, VH at the highest concentration) and binding to the CD137-Fc-coupled Protein G biosensors measured. Binding kinetics were determined from the (blank subtracted) sensor gram trace using 1:1 binding models and ForteBio Octet Data Analysis 9.0 software. Example kinetic and binding affinity data obtained is shown Table 18 (monovalent VH).
With B1, the Kd was determined as 11.5 nM, the koff came to 0.00164 s⁻¹ and the kon stood at 142000 M⁻¹ s⁻¹.
On the same counts, the results for B2 are 39 nM, 0.00287 s⁻¹ and 73600 M⁻¹ s⁻¹.
On the same counts, the results for B3 are 36.9 nM, 0.00249 s⁻¹ and 67400 M⁻¹ s⁻¹.
B4 registered a Kd of 41.4 nM, a dissociation rate constant (koff) of 0.00269 s⁻¹ and an association rate constant (kon) of 65000 M⁻¹ s⁻¹.
The like results for B5 were, in that order, 38.6 nM, 0.0023 s⁻¹ and 59700 M⁻¹ s⁻¹.
The like results for B6 were, in that order, 22.8 nM, 0.00253 s⁻¹ and 111000 M⁻¹ s⁻¹.
The like results for B7 were, in that order, 40.7 nM, 0.00233 s⁻¹ and 57300 M⁻¹ s⁻¹.
Molecule B8 displayed an equilibrium dissociation constant (Kd) of 33.1 nM, a koff of 0.0024 s⁻¹ and an association rate constant (kon) of 72500 M⁻¹ s⁻¹.
The like results for B9 were, in that order, 23 nM, 0.00235 s⁻¹ and 102000 M⁻¹ s⁻¹.

A further experiment concerns the target T3, recombinant Fc-tagged ectodomain of human PD1 (Acro Biosystems PD1-H5257) (human, UniProt Q15116 25-170).
T3 construct: Bought protein; not shown: Fc tag
In words: SPR, Biacore 8K, single-cycle kinetics; Fc-tagged ectodomain captured on Protein G chip; 1:1 model. As to the method:
(§1) Binding of Humabody® VH constructs was measured using a single-cycle kinetics method using the BIAcore 8K instrument with 90 second sample injections with a sample concentration range of low nanomolar to high nanomolar. […] The Protein G sensor surface was regenerated with a 20 second injection of 10 mM Glycine buffer, pH 1.5 (GE Healthcare BR100354). Data were analysed using a 1:1 binding model in Biacore Insight Evaluation software, including Humabody® VH constructs with two PD-1 arms.
(In general: In SPR one partner is held on a chip, and binding of the other changes the refractive index at the surface.)
B10: the equilibrium dissociation constant (Kd) worked out at 4.16 nM, the koff is 0.00241 s⁻¹ and the kon amounted to 580000 M⁻¹ s⁻¹.
The like results for B11 were, in that order, 7.57 nM, 0.00224 s⁻¹ and 296000 M⁻¹ s⁻¹.
The like results for B12 were, in that order, 4.45 nM, 0.00113 s⁻¹ and 255000 M⁻¹ s⁻¹.
B13: the Kd was 4.98 nM, the koff worked out at 0.00267 s⁻¹ and the kon was 537000 M⁻¹ s⁻¹.

A further experiment concerns the target T4, recombinant Fc-tagged ectodomain of human CD137 (Acro Biosystems 41B-H5258) (human, UniProt Q07011 24-186).
T4 construct: Bought protein; not shown: Fc tag
Described as above. The protocol:
as §1
As for B10, the Kd is 2.02 nM, the off-rate constant (koff) worked out at 0.000307 s⁻¹ and the on-rate constant (kon) was determined as 152000 M⁻¹ s⁻¹.
On the same counts, the results for B11 are 1.47 nM, 0.000121 s⁻¹ and 81800 M⁻¹ s⁻¹.
The like results for B12 were, in that order, 95.1 nM, 0.00383 s⁻¹ and 40300 M⁻¹ s⁻¹.
As to B13, the Kd came to 1.93 nM, the koff was found to be 0.000208 s⁻¹ and the association rate constant (kon) was found to be 108000 M⁻¹ s⁻¹.

For the next experiment, the target named is human CD137 expressed on cells (Jurkat human CD137 NF-kB luciferase reporter cells; human CD8+ T cells) (human, UniProt Q07011 24-255). The experiment in a line: cell-based or functional assay.
As for B14, the “Jurkat-CD137/CHO-PD-1 Reporter Assay EC50” value amounted to 14.1 nM.
On the same count and under the same terms, then B10, with 0.134 nM.
Take B15: the “Jurkat-CD137/CHO-PD-1 Reporter Assay EC50” value turned out to be 43 nM.

The record behind these values is patent US20220220215A1 (CRESCENDO BIOLOGICS, published 2022).
